Numbered stars: 1 amine (or outer) side, 2 acyl side, 3 side chain; on linkers, the order of the positions; unused ones are H or OH. Bridge positions count the residues as written; N and C are the ends. Square brackets hold non-standard residues; d marks the D form. Side chains are listed from the residue outwards. Ends that are not written are not given here. * marks the point of attachment. C20 diacid = O=C(O)CCCCCCCCCCCCCCCCCCC(=O)*; γGlu = O=C(O)[C@H](CCC(=O)[*:2])N[*:1]
T1: human amylin receptor (amylin 3(a) receptor: human calcitonin receptor coexpressed with RAMP-3) (human, UniProt P30988 25-474; O60896 24-148)
T1 sequence (looked up) 1: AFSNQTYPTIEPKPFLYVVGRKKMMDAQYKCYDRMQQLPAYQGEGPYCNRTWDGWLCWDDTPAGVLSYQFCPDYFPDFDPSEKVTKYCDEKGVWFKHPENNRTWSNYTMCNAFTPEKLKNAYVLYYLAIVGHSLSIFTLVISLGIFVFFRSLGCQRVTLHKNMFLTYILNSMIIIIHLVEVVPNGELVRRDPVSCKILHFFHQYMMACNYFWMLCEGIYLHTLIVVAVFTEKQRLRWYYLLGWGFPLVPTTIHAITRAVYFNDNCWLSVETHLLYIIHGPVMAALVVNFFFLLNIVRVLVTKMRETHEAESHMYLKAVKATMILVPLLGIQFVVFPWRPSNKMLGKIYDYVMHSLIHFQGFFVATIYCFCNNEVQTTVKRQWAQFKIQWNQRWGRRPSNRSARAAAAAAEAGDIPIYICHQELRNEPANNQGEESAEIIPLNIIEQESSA
T1 sequence (looked up) 2: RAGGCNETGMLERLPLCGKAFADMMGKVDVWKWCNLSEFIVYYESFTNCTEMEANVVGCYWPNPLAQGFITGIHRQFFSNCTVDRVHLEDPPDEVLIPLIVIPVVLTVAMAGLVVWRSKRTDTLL

T2: human calcitonin receptor (human, UniProt P30988 25-474)
T2 sequence (looked up): T1 sequence (looked up) 1

B1: N^ε1-[(4S)-4-carboxy-4-(19-carboxynonadecanoylamino)butanoyl]-[Glu14,Arg17,Pro21,Pro27,Pro34,His35]-h-amylin (peptide)
peptide: K([γGlu-C20 diacid])CNTATCATQRLAEFLRHSSPNFGAIPSSTNVGPHTY-NH2
modifications: disulfide 2-7
B2: N^ε1-[(4S)-4-carboxy-4-(19-carboxynonadecanoylamino)butanoyl]-[His14,Arg17,Pro21,Pro27,Arg34]-h-amylin (peptide)
peptide: K([γGlu-C20 diacid])CNTATCATQRLAHFLRHSSPNFGAIPSSTNVGRNTY-NH2
modifications: disulfide 2-7; N-terminus assumed
SMILES: CC[C@H](C)[C@H](NC(=O)[C@H](C)NC(=O)CNC(=O)[C@H](Cc1ccccc1)NC(=O)[C@H](CC(N)=O)NC(=O)[C@@H]1CCCN1C(=O)[C@H](CO)NC(=O)[C@H](CO)NC(=O)[C@H](Cc1c[nH]cn1)NC(=O)[C@H](CCCNC(=N)N)NC(=O)[C@H](CC(C)C)NC(=O)[C@H](Cc1ccccc1)NC(=O)[C@H](Cc1c[nH]cn1)NC(=O)[C@H](C)NC(=O)[C@H](CC(C)C)NC(=O)[C@H](CCCNC(=N)N)NC(=O)[C@H](CCC(N)=O)NC(=O)[C@@H](NC(=O)[C@H](C)NC(=O)[C@@H]1CSSC[C@H](NC(=O)[C@@H](N)CCCCNC(=O)CC[C@H](NC(=O)CCCCCCCCCCCCCCCCCCC(=O)O)C(=O)O)C(=O)N[C@@H](CC(N)=O)C(=O)N[C@@H]([C@@H](C)O)C(=O)N[C@@H](C)C(=O)N[C@@H]([C@@H](C)O)C(=O)N1)[C@@H](C)O)C(=O)N1CCC[C@H]1C(=O)N[C@@H](CO)C(=O)N[C@@H](CO)C(=O)N[C@H](C(=O)N[C@@H](CC(N)=O)C(=O)N[C@H](C(=O)NCC(=O)N[C@@H](CCCNC(=N)N)C(=O)N[C@@H](CC(N)=O)C(=O)N[C@H](C(=O)N[C@@H](Cc1ccc(O)cc1)C(N)=O)[C@@H](C)O)C(C)C)[C@@H](C)O
notes: also called compound 85
B3: N^ε1-[(4S)-4-carboxy-4-(19-carboxynonadecanoylamino)butanoyl]-[His14,Arg17,Pro21,Pro27,His34]-h-amylin (peptide)
peptide: K([γGlu-C20 diacid])CNTATCATQRLAHFLRHSSPNFGAIPSSTNVGHNTY-NH2
modifications: disulfide 2-7; N-terminus assumed
SMILES: CC[C@H](C)[C@H](NC(=O)[C@H](C)NC(=O)CNC(=O)[C@H](Cc1ccccc1)NC(=O)[C@H](CC(N)=O)NC(=O)[C@@H]1CCCN1C(=O)[C@H](CO)NC(=O)[C@H](CO)NC(=O)[C@H](Cc1c[nH]cn1)NC(=O)[C@H](CCCNC(=N)N)NC(=O)[C@H](CC(C)C)NC(=O)[C@H](Cc1ccccc1)NC(=O)[C@H](Cc1c[nH]cn1)NC(=O)[C@H](C)NC(=O)[C@H](CC(C)C)NC(=O)[C@H](CCCNC(=N)N)NC(=O)[C@H](CCC(N)=O)NC(=O)[C@@H](NC(=O)[C@H](C)NC(=O)[C@@H]1CSSC[C@H](NC(=O)[C@@H](N)CCCCNC(=O)CC[C@H](NC(=O)CCCCCCCCCCCCCCCCCCC(=O)O)C(=O)O)C(=O)N[C@@H](CC(N)=O)C(=O)N[C@@H]([C@@H](C)O)C(=O)N[C@@H](C)C(=O)N[C@@H]([C@@H](C)O)C(=O)N1)[C@@H](C)O)C(=O)N1CCC[C@H]1C(=O)N[C@@H](CO)C(=O)N[C@@H](CO)C(=O)N[C@H](C(=O)N[C@@H](CC(N)=O)C(=O)N[C@H](C(=O)NCC(=O)N[C@@H](Cc1c[nH]cn1)C(=O)N[C@@H](CC(N)=O)C(=O)N[C@H](C(=O)N[C@@H](Cc1ccc(O)cc1)C(N)=O)[C@@H](C)O)C(C)C)[C@@H](C)O
notes: also called compound 81
B4: N^ε1-[(4S)-4-carboxy-4-[[(4S)-4-carboxy-4-(19-carboxynonadecanoylamino)butanoyl]amino]butanoyl]-[Arg17,Pro21,Pro27,Pro31,Pro34,Arg35]-h-amylin (peptide)
peptide: K([γGlu-γGlu-C20 diacid])CNTATCATQRLANFLRHSSPNFGAIPSSTPVGPRTY-NH2
modifications: disulfide 2-7; N-terminus assumed
SMILES: CC[C@H](C)[C@H](NC(=O)[C@H](C)NC(=O)CNC(=O)[C@H](Cc1ccccc1)NC(=O)[C@H](CC(N)=O)NC(=O)[C@@H]1CCCN1C(=O)[C@H](CO)NC(=O)[C@H](CO)NC(=O)[C@H](Cc1c[nH]cn1)NC(=O)[C@H](CCCNC(=N)N)NC(=O)[C@H](CC(C)C)NC(=O)[C@H](Cc1ccccc1)NC(=O)[C@H](CC(N)=O)NC(=O)[C@H](C)NC(=O)[C@H](CC(C)C)NC(=O)[C@H](CCCNC(=N)N)NC(=O)[C@H](CCC(N)=O)NC(=O)[C@@H](NC(=O)[C@H](C)NC(=O)[C@@H]1CSSC[C@H](NC(=O)[C@@H](N)CCCCNC(=O)CC[C@H](NC(=O)CC[C@H](NC(=O)CCCCCCCCCCCCCCCCCCC(=O)O)C(=O)O)C(=O)O)C(=O)N[C@@H](CC(N)=O)C(=O)N[C@@H]([C@@H](C)O)C(=O)N[C@@H](C)C(=O)N[C@@H]([C@@H](C)O)C(=O)N1)[C@@H](C)O)C(=O)N1CCC[C@H]1C(=O)N[C@@H](CO)C(=O)N[C@@H](CO)C(=O)N[C@H](C(=O)N1CCC[C@H]1C(=O)N[C@H](C(=O)NCC(=O)N1CCC[C@H]1C(=O)N[C@@H](CCCNC(=N)N)C(=O)N[C@H](C(=O)N[C@@H](Cc1ccc(O)cc1)C(N)=O)[C@@H](C)O)C(C)C)[C@@H](C)O
B5: N^ε1-[(4S)-4-carboxy-4-[[(4S)-4-carboxy-4-(19-carboxynonadecanoylamino)butanoyl]amino]butanoyl]-[Asp14,Arg17,Pro21,Pro27,Pro34,Arg35]-h-amylin (peptide)
peptide: K([γGlu-γGlu-C20 diacid])CNTATCATQRLADFLRHSSPNFGAIPSSTNVGPRTY-NH2
modifications: disulfide 2-7; N-terminus assumed
SMILES: CC[C@H](C)[C@H](NC(=O)[C@H](C)NC(=O)CNC(=O)[C@H](Cc1ccccc1)NC(=O)[C@H](CC(N)=O)NC(=O)[C@@H]1CCCN1C(=O)[C@H](CO)NC(=O)[C@H](CO)NC(=O)[C@H](Cc1c[nH]cn1)NC(=O)[C@H](CCCNC(=N)N)NC(=O)[C@H](CC(C)C)NC(=O)[C@H](Cc1ccccc1)NC(=O)[C@H](CC(=O)O)NC(=O)[C@H](C)NC(=O)[C@H](CC(C)C)NC(=O)[C@H](CCCNC(=N)N)NC(=O)[C@H](CCC(N)=O)NC(=O)[C@@H](NC(=O)[C@H](C)NC(=O)[C@@H]1CSSC[C@H](NC(=O)[C@@H](N)CCCCNC(=O)CC[C@H](NC(=O)CC[C@H](NC(=O)CCCCCCCCCCCCCCCCCCC(=O)O)C(=O)O)C(=O)O)C(=O)N[C@@H](CC(N)=O)C(=O)N[C@@H]([C@@H](C)O)C(=O)N[C@@H](C)C(=O)N[C@@H]([C@@H](C)O)C(=O)N1)[C@@H](C)O)C(=O)N1CCC[C@H]1C(=O)N[C@@H](CO)C(=O)N[C@@H](CO)C(=O)N[C@H](C(=O)N[C@@H](CC(N)=O)C(=O)N[C@H](C(=O)NCC(=O)N1CCC[C@H]1C(=O)N[C@@H](CCCNC(=N)N)C(=O)N[C@H](C(=O)N[C@@H](Cc1ccc(O)cc1)C(N)=O)[C@@H](C)O)C(C)C)[C@@H](C)O
notes: also called compound 130
B6: N^ε1-[(4S)-4-carboxy-4-[[(4S)-4-carboxy-4-(19-carboxynonadecanoylamino)butanoyl]amino]butanoyl]-[D-Asp14,Arg17,Pro21,Pro27,Arg35]-h-amylin (peptide)
peptide: K([γGlu-γGlu-C20 diacid])CNTATCATQRLA[dD]FLRHSSPNFGAIPSSTNVGSRTY-NH2
modifications: disulfide 2-7; N-terminus assumed
SMILES: CC[C@H](C)[C@H](NC(=O)[C@H](C)NC(=O)CNC(=O)[C@H](Cc1ccccc1)NC(=O)[C@H](CC(N)=O)NC(=O)[C@@H]1CCCN1C(=O)[C@H](CO)NC(=O)[C@H](CO)NC(=O)[C@H](Cc1c[nH]cn1)NC(=O)[C@H](CCCNC(=N)N)NC(=O)[C@H](CC(C)C)NC(=O)[C@H](Cc1ccccc1)NC(=O)[C@@H](CC(=O)O)NC(=O)[C@H](C)NC(=O)[C@H](CC(C)C)NC(=O)[C@H](CCCNC(=N)N)NC(=O)[C@H](CCC(N)=O)NC(=O)[C@@H](NC(=O)[C@H](C)NC(=O)[C@@H]1CSSC[C@H](NC(=O)[C@@H](N)CCCCNC(=O)CC[C@H](NC(=O)CC[C@H](NC(=O)CCCCCCCCCCCCCCCCCCC(=O)O)C(=O)O)C(=O)O)C(=O)N[C@@H](CC(N)=O)C(=O)N[C@@H]([C@@H](C)O)C(=O)N[C@@H](C)C(=O)N[C@@H]([C@@H](C)O)C(=O)N1)[C@@H](C)O)C(=O)N1CCC[C@H]1C(=O)N[C@@H](CO)C(=O)N[C@@H](CO)C(=O)N[C@H](C(=O)N[C@@H](CC(N)=O)C(=O)N[C@H](C(=O)NCC(=O)N[C@@H](CO)C(=O)N[C@@H](CCCNC(=N)N)C(=O)N[C@H](C(=O)N[C@@H](Cc1ccc(O)cc1)C(N)=O)[C@@H](C)O)C(C)C)[C@@H](C)O
notes: Residue 14 is D-aspartic acid (printed 14d)
B7: N^ε1-[(4S)-4-carboxy-4-[[(4S)-4-carboxy-4-(19-carboxynonadecanoylamino)butanoyl]amino]butanoyl]-[Glu14,Arg17,Pro21,Pro27,Arg35]-h-amylin (peptide)
peptide: K([γGlu-γGlu-C20 diacid])CNTATCATQRLAEFLRHSSPNFGAIPSSTNVGSRTY-NH2
modifications: disulfide 2-7; N-terminus assumed
SMILES: CC[C@H](C)[C@H](NC(=O)[C@H](C)NC(=O)CNC(=O)[C@H](Cc1ccccc1)NC(=O)[C@H](CC(N)=O)NC(=O)[C@@H]1CCCN1C(=O)[C@H](CO)NC(=O)[C@H](CO)NC(=O)[C@H](Cc1c[nH]cn1)NC(=O)[C@H](CCCNC(=N)N)NC(=O)[C@H](CC(C)C)NC(=O)[C@H](Cc1ccccc1)NC(=O)[C@H](CCC(=O)O)NC(=O)[C@H](C)NC(=O)[C@H](CC(C)C)NC(=O)[C@H](CCCNC(=N)N)NC(=O)[C@H](CCC(N)=O)NC(=O)[C@@H](NC(=O)[C@H](C)NC(=O)[C@@H]1CSSC[C@H](NC(=O)[C@@H](N)CCCCNC(=O)CC[C@H](NC(=O)CC[C@H](NC(=O)CCCCCCCCCCCCCCCCCCC(=O)O)C(=O)O)C(=O)O)C(=O)N[C@@H](CC(N)=O)C(=O)N[C@@H]([C@@H](C)O)C(=O)N[C@@H](C)C(=O)N[C@@H]([C@@H](C)O)C(=O)N1)[C@@H](C)O)C(=O)N1CCC[C@H]1C(=O)N[C@@H](CO)C(=O)N[C@@H](CO)C(=O)N[C@H](C(=O)N[C@@H](CC(N)=O)C(=O)N[C@H](C(=O)NCC(=O)N[C@@H](CO)C(=O)N[C@@H](CCCNC(=N)N)C(=O)N[C@H](C(=O)N[C@@H](Cc1ccc(O)cc1)C(N)=O)[C@@H](C)O)C(C)C)[C@@H](C)O
notes: also called compound 89

These binders were tested against T1, human amylin receptor (amylin 3(a) …) (assay: cell-based or functional assay).

Binder	hAmylin-R funct. EC50 (pM)
B1	101
B2	146
B3	130
B4	333
B5	162
B6	383
B7	404

What follows are binders tested against T2, human calcitonin receptor (assay: cell-based or functional assay).

Binder	Ratio hCT/hAmylin funct.	hCTR funct. EC50 (pM)
B1	14.4	1450
B2	–	3880
B3	13.3	1730
B4	26	8660
B5	44.9	7280
B6	–	100000
B7	–	11200

Reference: patent publication US20140087995A1 (published 2014)
